# B1: Physcomitrella patens adenosine kinase 1 (PpADK1) (enzyme, UniProt O49923 1-343, looked up)
# chain: MASEGVLLGMGNPLLDISCVVDDAFLEKYGLTLNNAILAEDKHLPMYKELAANPDVEYIAGGATQNTIRIAQWMLGESNATSYFGCVGKDEYGDRMFKLASEGGVNIRYDVDEDLPTGTCGVLVVKGERSLVANLSAANKYKIDHLKKPENWAFVEKAKYIYSAGFFLTVSPESMMTVAKHAAETGKYYMINLAAPFICQFFKDPLMELFPYVDFIFGNESEARAFAQVQGWETEDTKVIAVKLAALPKAGGTHKRVAVITQGTDPTIVAEDGKVTEFPVTPIPKEKLVDTNAAGDSFVGGFLSQLVLGKDIAQCVRAGNYAASVIIQRSGCTFPSKPSFESQ
# Molecular target: the molecule itself
# Test: SEC
protein,measurement,value
B1,stoichiometry N,2

# Source: doi:10.1101/2024.12.05.626941 (bioRxiv, 2024)
